Results: paper PMC10968512, “Cry Toxins Use Multiple ATP-Binding Cassette Transporter Subfamily C Members as Low-Efficiency Receptors in Bombyx mori” (Biomolecules, 2024)

B1: Cry1Aa toxin (trypsin-activated) (domain or fragment)
chain: not shown
B2: Cry8Ca toxin (trypsin-activated) (domain or fragment)
chain: ISAQDAVGTGIDIVSTIISGLGIPVLGEVFSILGSLIGLLWPSNNENVWQIFMNRVEELIDQKILDSVRSRAIADLANSRIAVEYYQNALEDWRKNPHSTRSAALVKERFGNAEAILRTNMGSFSQTNYETPLLPTYAQAASLHLLVMRDVQIYGKEWGYPQNDIDLFYKEQVSYTARYSDHCVQWYNAGLNKLRGTGAKQWVDYNRFRREMNVMVLDLVALFPNYDARIYPLETNAELTREIFTDPVGSYVTGQSSTLISWYDMIPAALPSFSTLENLLRKPDFFTLLQEIRMYTSFRQNGTIEYYNYWGGQRLTLSYIYGSSFNKYSGVLAGAEDIIPVGQNDIYRVVWTYIGRYTNSLLGVNPVTFYFSNNTQKTYSKPKQFAGGIKTIDSGEELTYENYQSYSHRVSYITSFEIKSTGGTVLGVVPIFGWTHSSASRNNFIYATKISQIPINKASRTSGGAVWNFQEGLYNGGPVMKLSGSGSQVINLRVATDAKGASQRYRIRIRYASDRAGKFTISSRSPENPATYSASIAYTNTMSTNASLTYSTFAYAESGPINLGISGSSRTFDISITKEAGAANLYIDRIEF
B3: Cry9Aa toxin (trypsin-activated) (domain or fragment)
chain: YPLANNPYSSALNLNSCQNSSILNWINIIGDAAKEAVSIGTTIVSLITAPSLTGLISIVYDLIGKVLGGSSGQSISDLSICDLLSIIDLRVSQSVLNDGIADFNGSVLLYRNYLEALDSWNKNPNSASAEELRTRFRIADSEFDRILTRGSLTNGGSLARQNAQILLLPSFASAAFFHLLLLRDATRYGTNWGLYNATPFINYQSKLVELIELYTDYCVHWYNRGFNELRQRGTSATAWLEFHRYRREMTLMVLDIVASFSSLDITNYPIETDFQLSRVIYTDPIGFVHRSSLRGESWFSFVNRANFSDLENAIPNPRPSWFLNNMIISTGSLTLPVSPSTDRARVWYGSRDRISPANSQFITELISGQHTTATQTILGRNIFRVDSQACNLNDTTYGVNRAVFYHDASEGSQRSVYEGYIRTTGIDNPRVQNINTYLPGENSDIPTPEDYTHILSTTINLTGGLRQVASNRRSSLVMYGWTHKSLARNNTINPDRITQIPLTKVDTRGTGVSYVNDPGFIGGALLQRTDHGSLGVLRVQFPLHLRQQYRIRVRYASTTNIRLSVNGSFGTISQNLPSTMRLGEDLRYGSFAIREFNTSIRPTASPDQIRLTIEPSFIRQEVYVDRIEFIPVNPT
B4: Cry1Da toxin (trypsin-activated) (domain or fragment)
chain: ETGNTVADISLGLINFLYSNFVPGGGFIVGLLELIWGFIGPSQWDIFLAQIEQLISQRIEEFARNQAISRLEGLSNLYKVYVRAFSDWEKDPTNPALREEMRIQFNDMNSALITAIPLFRVQNYEVALLSVYVQAANLHLSILRDVSVFGERWGYDTATINNRYSDLTSLIHVYTNHCVDTYNQGLRRLEGRFLSDWIVYNRFRRQLTISVLDIVAFFPNYDIRTYPIQTATQLTREVYLDLPFINENLSPAASYPTFSAAESAIIRSPHLVDFLNSFTIYTDSLARYAYWGGHLVNSFRTGTTTNLIRSPLYGREGNTERPVTITASPSVPIFRTLSYITGLDNSNPVAGIEGVEFQNTISRSIYRKSGPIDSFSELPPQDASVSPAIGYSHRLCHATFLERISGPRIAGTVFSWTHRSASPTNEVSPSRITQIPWVKAHTLASGASVIKGPGFTGGDILTRNSMGELGTLRVTFTGRLPQSYYIRFRYASVANRSGTFRYSQPPSYGISFPKTMDAGEPLTSRSFAHTTLFTPITFSRAQEEFDLYIQSGVYIDRIEFIPVTAT

How the values were obtained:
[1] = molecular target: T1, Bombyx mori ABC transporter subfamily C member 4, BmABCC4-FLAG (Bombyx mori); test: SPR; BIACORE; BmABCC immobilised on a CM5 sensor chip; toxins (or BSA) in PBST (PBS with 0.005% Tween 20) at 500 and/or 1000 nM; 120 s association, 240 s dissociation; fitted with two-state reaction models (BIAevaluation ver.4.1); conditions: both partners purified
T1 construct: BmABCC4 (MRP4) of Bombyx mori, protein XP_021205339.2, cDNA XM_021349664.2 amplified from midgut cDNA; also called MRP4 (name in the NCBI)
T1 sequence (main, as listed by the source): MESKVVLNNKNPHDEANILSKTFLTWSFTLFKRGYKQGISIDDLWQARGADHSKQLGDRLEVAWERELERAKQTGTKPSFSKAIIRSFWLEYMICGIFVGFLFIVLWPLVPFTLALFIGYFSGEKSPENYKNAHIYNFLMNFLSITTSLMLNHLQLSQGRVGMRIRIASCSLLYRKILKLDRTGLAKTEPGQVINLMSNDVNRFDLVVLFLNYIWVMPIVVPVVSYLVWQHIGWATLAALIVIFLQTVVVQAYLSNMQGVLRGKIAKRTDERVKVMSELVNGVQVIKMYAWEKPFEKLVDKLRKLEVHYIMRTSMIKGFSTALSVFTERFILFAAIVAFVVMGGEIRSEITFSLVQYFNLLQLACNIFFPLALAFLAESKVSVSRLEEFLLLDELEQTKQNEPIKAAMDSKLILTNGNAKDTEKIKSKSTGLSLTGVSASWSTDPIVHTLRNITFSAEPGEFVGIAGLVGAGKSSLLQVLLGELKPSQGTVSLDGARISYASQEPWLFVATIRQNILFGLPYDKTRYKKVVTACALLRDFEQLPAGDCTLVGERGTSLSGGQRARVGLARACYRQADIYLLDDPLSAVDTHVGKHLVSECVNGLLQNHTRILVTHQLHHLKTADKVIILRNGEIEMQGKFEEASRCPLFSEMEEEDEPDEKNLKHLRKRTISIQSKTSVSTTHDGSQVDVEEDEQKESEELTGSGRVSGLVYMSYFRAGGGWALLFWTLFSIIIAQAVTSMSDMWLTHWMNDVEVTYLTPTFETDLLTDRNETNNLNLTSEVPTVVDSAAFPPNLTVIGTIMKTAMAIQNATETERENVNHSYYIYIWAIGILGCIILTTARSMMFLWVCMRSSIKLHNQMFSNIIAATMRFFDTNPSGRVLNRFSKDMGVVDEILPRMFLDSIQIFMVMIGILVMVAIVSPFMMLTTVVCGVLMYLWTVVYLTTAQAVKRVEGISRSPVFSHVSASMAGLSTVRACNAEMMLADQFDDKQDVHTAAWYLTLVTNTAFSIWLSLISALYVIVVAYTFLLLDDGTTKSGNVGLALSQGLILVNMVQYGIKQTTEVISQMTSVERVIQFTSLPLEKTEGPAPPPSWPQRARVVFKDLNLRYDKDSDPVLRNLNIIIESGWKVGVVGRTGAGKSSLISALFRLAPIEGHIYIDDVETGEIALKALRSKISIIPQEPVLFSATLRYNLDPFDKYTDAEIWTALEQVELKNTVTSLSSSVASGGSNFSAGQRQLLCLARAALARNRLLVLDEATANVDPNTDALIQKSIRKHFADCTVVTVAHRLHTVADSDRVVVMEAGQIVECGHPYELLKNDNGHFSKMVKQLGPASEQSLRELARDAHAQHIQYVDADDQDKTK

[2] = molecular target: T2, Bombyx mori ABC transporter subfamily C member 1, BmABCC1-FLAG (Bombyx mori); test: as above; conditions: both partners purified
T2 construct: BmABCC1 (MRP1) of Bombyx mori, protein XP_012546136.1, cDNA XM_012690682.3 amplified from midgut cDNA; also called MRP1 (name in the NCBI)
T2 sequence (main, as listed by the source): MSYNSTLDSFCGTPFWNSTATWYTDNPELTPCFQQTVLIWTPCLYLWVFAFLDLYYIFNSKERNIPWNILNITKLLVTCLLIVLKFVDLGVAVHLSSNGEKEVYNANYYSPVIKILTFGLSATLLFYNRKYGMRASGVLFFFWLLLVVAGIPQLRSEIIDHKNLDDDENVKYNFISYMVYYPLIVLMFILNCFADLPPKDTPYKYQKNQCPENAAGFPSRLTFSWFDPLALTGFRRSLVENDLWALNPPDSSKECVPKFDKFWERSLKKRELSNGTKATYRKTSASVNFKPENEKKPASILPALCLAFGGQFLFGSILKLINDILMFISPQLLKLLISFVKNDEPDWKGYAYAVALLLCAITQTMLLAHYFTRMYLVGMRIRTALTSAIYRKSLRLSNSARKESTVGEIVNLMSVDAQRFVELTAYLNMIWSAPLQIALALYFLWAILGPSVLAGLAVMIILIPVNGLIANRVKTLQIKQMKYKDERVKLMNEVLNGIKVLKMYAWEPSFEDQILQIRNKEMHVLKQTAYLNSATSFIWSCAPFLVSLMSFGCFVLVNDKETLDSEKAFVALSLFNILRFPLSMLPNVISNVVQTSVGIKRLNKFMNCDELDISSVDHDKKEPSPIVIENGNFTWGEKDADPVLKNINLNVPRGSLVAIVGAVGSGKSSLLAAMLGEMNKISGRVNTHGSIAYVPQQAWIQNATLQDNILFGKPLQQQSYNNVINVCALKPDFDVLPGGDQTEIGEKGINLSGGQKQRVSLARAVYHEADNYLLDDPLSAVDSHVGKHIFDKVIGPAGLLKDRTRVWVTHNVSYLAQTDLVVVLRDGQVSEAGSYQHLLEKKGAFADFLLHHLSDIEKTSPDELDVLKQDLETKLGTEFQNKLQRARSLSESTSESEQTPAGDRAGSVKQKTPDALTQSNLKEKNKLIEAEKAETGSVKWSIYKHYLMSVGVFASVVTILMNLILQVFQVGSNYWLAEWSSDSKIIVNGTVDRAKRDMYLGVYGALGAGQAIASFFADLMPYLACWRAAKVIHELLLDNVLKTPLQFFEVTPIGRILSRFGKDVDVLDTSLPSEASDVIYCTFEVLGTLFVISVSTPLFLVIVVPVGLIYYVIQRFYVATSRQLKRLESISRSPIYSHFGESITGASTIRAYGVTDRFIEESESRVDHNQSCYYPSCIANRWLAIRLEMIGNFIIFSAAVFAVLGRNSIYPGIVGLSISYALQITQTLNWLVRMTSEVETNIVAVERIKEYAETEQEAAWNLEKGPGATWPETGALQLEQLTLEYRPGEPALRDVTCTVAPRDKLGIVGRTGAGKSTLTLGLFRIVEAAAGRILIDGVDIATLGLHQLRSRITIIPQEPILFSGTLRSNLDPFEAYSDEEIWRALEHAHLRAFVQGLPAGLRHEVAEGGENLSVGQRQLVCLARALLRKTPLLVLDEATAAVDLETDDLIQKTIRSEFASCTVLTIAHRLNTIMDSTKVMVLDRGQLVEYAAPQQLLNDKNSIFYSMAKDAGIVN

Row | Binder | Kd [1] [nM] | Kd [2] [nM]
1 | B1 | 267 | 46100
2 | B2 | 61.7 | 34.8
3 | B3 | – | 1.89
4 | B4 | 63.7 | 415
